Sequences and labels used below:
B1: ADAMTS4 (parent)
chain: HVDPEEPWSPCSARFITDFLDNGY
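Note: lentivirally expressed fusions sorted by FACS into six bins by GFP to DsRed ratio, PSI derived from sequencing read proportions per bin multiplied by bin number.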

In this series the parent is B1. Briefly: protein stability index of a GFP-peptide fusion (GPS, HEK-293T) (PSI 1-6); higher = more stable. The conditions noted are these: c terminus: a fixed tail appended.
With HVDPEEPWSPCSARFITFFLDNGY [D18F], the protein stability index amounted to 1.6.

For HVDPEEPWSPCSARFITCFLDNGY [D18C], the protein stability index was determined as 2.73.

Take HVDPEEPWSPCSARFITHFLDNGY [D18H]: the protein stability index worked out at 1.89.

HVDPEEPWSPCSARFITEFLDNGY [D18E]: the protein stability index was 1.99.

Consider HVDPEEPWSPCSARFITAFLDNGY [D18A], for which the protein stability index came out at 2.2.

For the variant HVDPEEPWSPCSARFITIFLDNGY [D18I], the protein stability index was found to be 2.73.

For the variant HVDPEEPWSPCSARFITGFLDNGY [D18G], the protein stability index was determined as 1.59.

For HVDPEEPWSPCSAGFITDFLDNGY [R14G], the protein stability index was determined as 2.15.

In the case of HVDPEEPWSPCSAEFITDFLDNGY [R14E], the protein stability index came out at 2.58.

With HVDPEEPWSPCSAPFITDFLDNGY [R14P], the protein stability index turned out to be 1.87.

Take HVDPEEPWSPCSASFITDFLDNGY [R14S]: the protein stability index turned out to be 2.02.

For HVDPEEPWSPCSAYFITDFLDNGY [R14Y], the protein stability index amounted to 1.71.

Regarding HVDPEEPWSPCSAAFITDFLDNGY [R14A], the protein stability index worked out at 2.05.

On to HVDPEEPWSPCSAQFITDFLDNGY [R14Q], for which the protein stability index is 2.

On to HVDPEEPWSPCSADFITDFLDNGY [R14D], for which the protein stability index is 2.45.

As for HVDPEEPWSPCSAHFITDFLDNGY [R14H], the protein stability index was 1.84.

In the case of HVDPEEPWSPCSACFITDFLDNGY [R14C], the protein stability index is 1.66.

On to HVDPEEPWSPCSAKFITDFLDNGY [R14K], for which the protein stability index came out at 2.32.

With HVDPEEPWSPCSAVFITDFLDNGY [R14V], the protein stability index was 1.56.

As to HVDPEEPWSPCSALFITDFLDNGY [R14L], the protein stability index was 2.13.

Turning to HVDPEEPWSPCSAMFITDFLDNGY [R14M], the protein stability index came out at 1.51.

As to HVDPEEPWSPCSAIFITDFLDNGY [R14I], the protein stability index came to 2.28.

Turning to HVDPEEPWSPCSAWFITDFLDNGY [R14W], the protein stability index turned out to be 1.58.

In the case of HVDPEEPWSPCSATFITDFLDNGY [R14T], the protein stability index was determined as 1.83.

On to HVDPEEPWSPCSAFFITDFLDNGY [R14F], for which the protein stability index is 2.27.

HVDPEEPWSPCSANFITDFLDNGY [R14N]: the protein stability index is 1.86.

As for HVDPEEPWSPCSSRFITDFLDNGY [A13S], the protein stability index amounted to 1.89.

With HVDPEEPWSPCSWRFITDFLDNGY [A13W], the protein stability index is 1.95.

As for HVDPEEPWSPCSMRFITDFLDNGY [A13M], the protein stability index was determined as 2.18.

Take HVDPEEPWSPCSRRFITDFLDNGY [A13R]: the protein stability index turned out to be 1.87.

Take HVDPEEPWSPCSTRFITDFLDNGY [A13T]: the protein stability index amounted to 1.79.

As to HVDPEEPWSPCSYRFITDFLDNGY [A13Y], the protein stability index was 1.67.

Turning to HVDPEEPWSPCSQRFITDFLDNGY [A13Q], the protein stability index came out at 1.97.

On to HVDPEEPWSPCSPRFITDFLDNGY [A13P], for which the protein stability index was 1.89.

Turning to HVDPEEPWSPCSNRFITDFLDNGY [A13N], the protein stability index came out at 2.33.

Turning to HVDPEEPWSPCSVRFITDFLDNGY [A13V], the protein stability index worked out at 2.54.

Turning to HVDPEEPWSPCSLRFITDFLDNGY [A13L], the protein stability index is 1.88.

As for HVDPEEPWSPCSARFWTDFLDNGY [I16W], the protein stability index is 1.55.

On to HVDPEEPWSPCSARFSTDFLDNGY [I16S], for which the protein stability index amounted to 1.98.

Regarding HVDPEEPWSPCSARFCTDFLDNGY [I16C], the protein stability index came to 1.59.

In the case of HVDPEEPWSPCSARFLTDFLDNGY [I16L], the protein stability index is 1.67.

On to HVDPEEPWSPCSARFFTDFLDNGY [I16F], for which the protein stability index is 1.63.

Turning to HVDPEEPWSPCSARFNTDFLDNGY [I16N], the protein stability index turned out to be 2.19.

As for HVDPEEPWSPCSARFGTDFLDNGY [I16G], the protein stability index is 2.27.

Regarding HVDPEEPWSPCSARFQTDFLDNGY [I16Q], the protein stability index turned out to be 2.07.

HVDPEEPWSPCSARFHTDFLDNGY [I16H]: the protein stability index stood at 1.72.

With HVDPEEPWSPCSARFTTDFLDNGY [I16T], the protein stability index turned out to be 1.74.

Consider HVDPEEPWSPCSARFKTDFLDNGY [I16K], for which the protein stability index was found to be 1.73.

HVDPEEPWSPCSARFATDFLDNGY [I16A]: the protein stability index was 2.13.

Regarding HVDPEEPWSPCSARFDTDFLDNGY [I16D], the protein stability index amounted to 1.94.

As to HVDPEEPWSPCSARFVTDFLDNGY [I16V], the protein stability index came out at 1.97.

With HVDPEEPWSPCSARFYTDFLDNGY [I16Y], the protein stability index amounted to 1.89.

For the variant HVDPEEPWSPCSARFRTDFLDNGY [I16R], the protein stability index was determined as 2.84.

Regarding HVDPEEPWSPCSARFPTDFLDNGY [I16P], the protein stability index came to 1.81.

With HVDPEEPWSPCSARFETDFLDNGY [I16E], the protein stability index is 2.33.

As for HVDPEEPWSPCSARFMTDFLDNGY [I16M], the protein stability index was determined as 1.69.

Take HVDPEEPWSPCSARFILDFLDNGY [T17L]: the protein stability index came to 2.39.

As to HVDPEEPWSPCSARFIHDFLDNGY [T17H], the protein stability index was found to be 2.05.

Turning to HVDPEEPWSPCSARFIPDFLDNGY [T17P], the protein stability index is 1.88.

On to HVDPEEPWSPCSARFISDFLDNGY [T17S], for which the protein stability index amounted to 1.88.

In the case of HVDPEEPWSPCSARFIQDFLDNGY [T17Q], the protein stability index was determined as 1.77.

Regarding HVDPEEPWSPCSARFIEDFLDNGY [T17E], the protein stability index was determined as 1.57.

For the variant HVDPEEPWSPCSARFINDFLDNGY [T17N], the protein stability index turned out to be 1.62.

For the variant HVDPEEPWSPCSARFIFDFLDNGY [T17F], the protein stability index came to 1.41.

As to HVDPEEPWSPCSARFIMDFLDNGY [T17M], the protein stability index worked out at 2.38.

HVDPEEPWSPCSARFIADFLDNGY [T17A]: the protein stability index worked out at 1.87.

Regarding HVDPEEPWSPCSARFIRDFLDNGY [T17R], the protein stability index was found to be 2.03.

As to HVDPEEPWSPCSARFIGDFLDNGY [T17G], the protein stability index came out at 1.71.

For HVDPEEPWSPCSARFIVDFLDNGY [T17V], the protein stability index came out at 1.83.

Take HVDPEEPWSPCSARFIDDFLDNGY [T17D]: the protein stability index turned out to be 1.81.

For HVDPEEPWSPCSARFIYDFLDNGY [T17Y], the protein stability index worked out at 1.83.

Regarding HVDPEEPWSPCSARFIKDFLDNGY [T17K], the protein stability index amounted to 1.71.

On to HVDPEEPWSPCSARFIIDFLDNGY [T17I], for which the protein stability index is 2.13.

Turning to HVDPEEPWSPCSARFIWDFLDNGY [T17W], the protein stability index is 1.86.

Turning to HVDPEEPWSPCSARFICDFLDNGY [T17C], the protein stability index is 2.04.

For HVDPEEPWSPCSARRITDFLDNGY [F15R], the protein stability index turned out to be 2.25.

As to HVDPEEPWSPCSARDITDFLDNGY [F15D], the protein stability index is 2.47.

Take HVDPEEPWSPCSARHITDFLDNGY [F15H]: the protein stability index came to 1.98.

On to HVDPEEPWSPCSARGITDFLDNGY [F15G], for which the protein stability index was found to be 2.71.

With HVDPEEPWSPCSARSITDFLDNGY [F15S], the protein stability index came out at 1.88.

In the case of HVDPEEPWSPCSARVITDFLDNGY [F15V], the protein stability index was 1.91.

In the case of HVDPEEPWSPCSARPITDFLDNGY [F15P], the protein stability index is 2.08.

With HVDPEEPWSPCSARNITDFLDNGY [F15N], the protein stability index was found to be 2.04.

On to HVDPEEPWSPCSARLITDFLDNGY [F15L], for which the protein stability index was 1.96.

As to HVDPEEPWSPCSARYITDFLDNGY [F15Y], the protein stability index amounted to 2.01.

Turning to HVDPEEPWSPCSARIITDFLDNGY [F15I], the protein stability index was found to be 1.71.

Regarding HVDPEEPWSPCSARMITDFLDNGY [F15M], the protein stability index was 1.91.

In the case of HVDPEEPWSPCSARKITDFLDNGY [F15K], the protein stability index was 2.07.

As to HVDPEEPWSPCSARAITDFLDNGY [F15A], the protein stability index was 1.94.

As for HVDPEEPWSPCSARWITDFLDNGY [F15W], the protein stability index stood at 1.64.

For HVDPEEPWSPCSAREITDFLDNGY [F15E], the protein stability index is 2.65.

With HVDPEEPWSPCSARQITDFLDNGY [F15Q], the protein stability index turned out to be 1.77.

In the case of HVDPEEPWSPCSARTITDFLDNGY [F15T], the protein stability index came out at 1.64.

For HVDPEEPWSPCSARCITDFLDNGY [F15C], the protein stability index is 1.97.

The values above are taken from the supplement of paper PMC10567573.
